Source: patent US20240287172A1 (SCIRHOM, published 2024)
Residue numbers refer to the chain shown, from its start.

How the values were obtained:
Assay in all cases: FACS, MEF-DKO cells, 3 µg/ml
[1] = target: T1, hiR2-FL-T522V-T7 (human, UniProt Q6PJF5 1-856)
T1 sequence: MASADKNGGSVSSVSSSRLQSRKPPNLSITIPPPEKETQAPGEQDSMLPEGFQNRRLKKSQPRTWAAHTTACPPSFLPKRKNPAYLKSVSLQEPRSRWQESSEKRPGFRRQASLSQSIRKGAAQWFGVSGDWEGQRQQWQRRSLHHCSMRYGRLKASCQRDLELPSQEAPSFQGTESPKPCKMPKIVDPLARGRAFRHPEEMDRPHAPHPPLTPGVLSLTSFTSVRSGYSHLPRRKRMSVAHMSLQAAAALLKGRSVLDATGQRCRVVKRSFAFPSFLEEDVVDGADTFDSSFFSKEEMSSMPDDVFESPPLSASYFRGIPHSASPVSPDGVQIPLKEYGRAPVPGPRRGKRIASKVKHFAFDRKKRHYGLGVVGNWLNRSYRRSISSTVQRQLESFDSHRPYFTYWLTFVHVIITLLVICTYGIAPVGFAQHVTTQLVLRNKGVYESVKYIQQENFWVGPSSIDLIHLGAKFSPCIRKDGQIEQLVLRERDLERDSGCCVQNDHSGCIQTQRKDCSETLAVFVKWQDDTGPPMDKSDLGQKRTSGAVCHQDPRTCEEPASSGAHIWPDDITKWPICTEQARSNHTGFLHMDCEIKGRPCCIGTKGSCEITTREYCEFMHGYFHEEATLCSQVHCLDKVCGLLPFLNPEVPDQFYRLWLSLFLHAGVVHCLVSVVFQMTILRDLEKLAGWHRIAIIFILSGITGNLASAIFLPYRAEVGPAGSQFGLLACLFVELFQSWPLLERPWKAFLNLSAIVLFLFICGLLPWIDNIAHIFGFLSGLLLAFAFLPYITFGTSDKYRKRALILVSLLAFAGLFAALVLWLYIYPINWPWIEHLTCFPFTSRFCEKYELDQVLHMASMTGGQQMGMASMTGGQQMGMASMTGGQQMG

[2] = target: T2, hiR2-FL-D528I-T7 (human, UniProt Q6PJF5 1-856)
T2 sequence: T1 sequence with V522T, D528I

[3] = target: T3, hiR2-FL-G531S-T7 (human, UniProt Q6PJF5 1-856)
T3 sequence: T1 sequence with V522T, G531S

Measured: loss of binding vs wild type

B1: antibody 48 (antibody, V domains shown)
VH: QVQLQQSGTELVRPGTSVKVSCKASGYAFTNYLIEWVKQRPGQGLEWIGVINPGSGFTKYNEKFKGKATLTADKSSSTVYMHLSSLTSEDSAVYFCARGLYRAMDYWGQGTSVTVSS
VL: DIQMTQSPASQSASLGESVTITCLASQTIATWLAWYQQKPGKSPQLLIYGATTLADGVPSRFSGGGSGTKFSFKISSLQAEDFVSYYCQQLYSTPYTFGGGTKLEIK
notes: mouse IgG, kappa light chain; also called clone #48; purified antibody 48
≥ 30%: all assays above

B2: antibody 50 (antibody, V domains shown)
VH: B1 VH with T9A, T16A, T30S, V79A, H82Q
VL: B1 VL with A30G, G50A, T52A, T53S, S85N, L91I
notes: mouse IgG, kappa light chain; also called clone #50; purified antibody 50
≥ 30%: all assays above
